Laboratory results published in PMC4619645.

Experiments:
[1] = molecular target: invariant surface glycoprotein ISG65 (Trypanosoma brucei brucei (endogenous in bloodstream-form cells, MITat 1.2, Lister 427)); assay: native gel or EMSA; Blue Native PAGE of bloodstream-form cell lysates, followed by western blotting; carried out as described in ref. 57
[2] = molecular target: invariant surface glycoprotein ISG75 (Trypanosoma brucei brucei (endogenous in bloodstream-form cells, MITat 1.2, Lister 427)); assay: as above

Substance | stoichiometry N [1] | stoichiometry N [2]
invariant surface glycoprotein ISG65 (natural protein) | 2 | –
invariant surface glycoprotein ISG75 (natural protein) | – | > 2
